From patent publication US20180362596

Target: human plasmin (UniProt P00747)
Sequence (P00747 97-810): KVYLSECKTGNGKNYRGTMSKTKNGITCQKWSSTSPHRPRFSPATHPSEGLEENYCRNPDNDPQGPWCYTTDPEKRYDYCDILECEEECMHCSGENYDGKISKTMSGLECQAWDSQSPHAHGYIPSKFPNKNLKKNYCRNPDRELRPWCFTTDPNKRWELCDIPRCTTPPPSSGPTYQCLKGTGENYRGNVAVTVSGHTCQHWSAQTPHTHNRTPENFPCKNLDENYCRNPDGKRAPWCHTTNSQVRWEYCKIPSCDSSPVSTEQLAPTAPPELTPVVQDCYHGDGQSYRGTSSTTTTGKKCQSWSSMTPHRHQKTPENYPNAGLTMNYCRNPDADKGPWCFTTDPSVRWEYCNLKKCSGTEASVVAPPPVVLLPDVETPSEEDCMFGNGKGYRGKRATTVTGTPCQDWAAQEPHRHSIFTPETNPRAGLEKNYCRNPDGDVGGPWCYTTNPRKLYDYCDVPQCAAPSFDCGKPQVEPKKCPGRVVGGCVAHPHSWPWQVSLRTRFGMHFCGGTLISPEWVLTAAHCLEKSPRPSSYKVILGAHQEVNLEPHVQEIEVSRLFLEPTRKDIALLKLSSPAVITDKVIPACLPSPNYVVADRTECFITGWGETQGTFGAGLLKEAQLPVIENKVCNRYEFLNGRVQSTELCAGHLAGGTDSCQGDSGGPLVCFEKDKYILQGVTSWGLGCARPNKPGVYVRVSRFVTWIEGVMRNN

| Substance | lag in plasminogen activation activity with added plasmin |
| --- | --- |
| clot specific streptokinase (CSSK), FBD(4,5)-SK-FBD(4,5), expressed in E. coli | there was a progressive decrease in the lag in activity in the presence of increasing amounts of plasmin added to the reaction |
| clot specific streptokinase (CSSK), FBD(4,5)-SK-FBD(4,5), expressed in Pichia pastoris (pPIC9K-alpha modified CSSK/GS115), glycosylated | there was a progressive decrease in the lag in activity in the presence of increasing amounts of plasmin added to the reaction |
